The source of these data is patent US20260001961A1 (ALLIGATOR BIOSCIENCE, published 2026).

In general, Kd refers to the equilibrium constant for the complex coming apart. One may read the koff as a measure of how fast the partners let go of each other. For orientation: kon means a measure of how fast the partners come together. The low end stands for slower complex formation, the high end for faster complex formation. The term EC50 (read off the curve) denotes the concentration needed to bring the measured effect to its halfway point.

T1: EpCAM (UniProt P16422 24-265)
T1 construct: also called biotinylated EpCAM
T1 sequence (looked up): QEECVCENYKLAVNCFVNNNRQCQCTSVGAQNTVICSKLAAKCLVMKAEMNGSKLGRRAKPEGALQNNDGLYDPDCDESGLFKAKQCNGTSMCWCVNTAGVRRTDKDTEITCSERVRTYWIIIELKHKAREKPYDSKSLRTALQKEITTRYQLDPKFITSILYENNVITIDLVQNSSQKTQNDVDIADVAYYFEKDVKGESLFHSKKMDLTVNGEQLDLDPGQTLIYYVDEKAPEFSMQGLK

B1: AC_05293 (bispecific antibody)
heavy: not shown
light: DIQMTQSPSSLSASVGDRVTITCRASQSISSYLNWYQEKPGKAPKLLIYAASSLQSGVPSRFSGSGSGTDFTLTISSLQPEDFATYYCQQYGRNPPTFGQGTKLEIKRTVAAPSVFIFPPSDEQLKSGTASVVCYLNNFYPREAKVQWKVDNALQSGNSQESVTEQDSKDSTYSLWSTLTLSKADYEKHKVYACEVTHQGLSSPVTKSFNRGEC
chain: EVQLLEQSGAELVRPGTSVKISCKASGYAFTNYWLGWVKERPGHGLEWIGDIFPGSGNIHYNEKFKGKATLTADKSSSTAYMQLSSLTFEDSAVYFCARLRNWDEPMDYWGQGTTVTVSSASTKGPSVFPLAPSSKSTSGGTAALGCLVKDYFPEPVTVSWNSGALTSGVHTFPAVLQSSGLYSLSSVVEVPSSSLGTQTYICNVNHKPSNTKVDKKVEPKSC
notes: Chain H1 (role heavy) = IgG heavy chain-linker-Fab light chain; chain L1 (role light) = IgG light chain; chain H2 (role chain) = Fab heavy chain VH-CH1; also called wt bsAb (AC_05293); wild-type bsAb
B2: AM_4109-4126 (bispecific antibody)
heavy 1: not shown
light: B1 light
heavy 2: B1 chain with Y183I
notes: AC_05293 backbone; also called double mutant I126A + Y180I; copies: 2 + 2 + 2
B3: AM_4120-4126 (bispecific antibody)
heavy 1: not shown
light: B1 light
heavy 2: B1 chain with Y183I
notes: AC_05293 backbone; also called double mutant A111V + Y180I; copies: 2 + 2 + 2
B4: AM_4110-4133 (bispecific antibody)
heavy 1: not shown
light: B1 light
heavy 2: B1 chain with S186T
notes: AC_05293 backbone; also called double mutant I126G + S183T; copies: 2 + 2 + 2
B5: AM_4109-4134 (bispecific antibody)
heavy 1: not shown
light: B1 light
heavy 2: B1 chain with V191G
notes: AC_05293 backbone; also called double mutant I126A + V188G; copies: 2 + 2 + 2
B6: AM_4115-4133 (bispecific antibody)
heavy 1: not shown
light: B1 light
heavy 2: B1 chain with S186T
notes: AC_05293 backbone; also called double mutant I126S + S183T; copies: 2 + 2 + 2
B7: AM_4110-4134 (bispecific antibody)
heavy 1: not shown
light: B1 light
heavy 2: B1 chain with V191G
notes: AC_05293 backbone; also called double mutant I126G + V188G; copies: 2 + 2 + 2
B8: AM_4120-4134 (bispecific antibody)
heavy 1: not shown
light: B1 light
heavy 2: B1 chain with V191G
notes: AC_05293 backbone; also called double mutant A111V + V188G; copies: 2 + 2 + 2
B9: AM_4117-4126 (bispecific antibody)
heavy 1: not shown
light: B1 light
heavy 2: B1 chain with Y183I
notes: AC_05293 backbone; also called double mutant T109P + Y180I; copies: 2 + 2 + 2
B10: AM_4117-4133 (bispecific antibody)
heavy 1: not shown
light: B1 light
heavy 2: B1 chain with S186T
notes: AC_05293 backbone; also called double mutant T109P + S183T; copies: 2 + 2 + 2
B11: AM_4115-4134 (bispecific antibody)
heavy 1: not shown
light: B1 light
heavy 2: B1 chain with V191G
notes: AC_05293 backbone; also called double mutant I126S + V188G; copies: 2 + 2 + 2
B12: AM_4110-4131 (bispecific antibody)
heavy 1: not shown
light: B1 light
heavy 2: B1 chain with Y183W
notes: AC_05293 backbone; also called double mutant I126G + Y180W; copies: 2 + 2 + 2
B13: AM_4109-4133 (bispecific antibody)
heavy 1: not shown
light: B1 light
heavy 2: B1 chain with S186T
notes: AC_05293 backbone; also called double mutant I126A + S183T; copies: 2 + 2 + 2
B14: AM_4117-4131 (bispecific antibody)
heavy 1: not shown
light: B1 light
heavy 2: B1 chain with Y183W
notes: AC_05293 backbone; also called double mutant T109P + Y180W; copies: 2 + 2 + 2
B15: AM_4110-4126 (bispecific antibody)
heavy 1: not shown
light: B1 light
heavy 2: B1 chain with Y183I
notes: AC_05293 backbone; also called double mutant I126G + Y180I; copies: 2 + 2 + 2
B16: AM_4120-4133 (bispecific antibody)
heavy 1: not shown
light: B1 light
heavy 2: B1 chain with S186T
notes: AC_05293 backbone; also called double mutant A111V + S183T; copies: 2 + 2 + 2
B17: AM_4117-4134 (bispecific antibody)
heavy 1: not shown
light: B1 light
heavy 2: B1 chain with V191G
notes: AC_05293 backbone; also called double mutant T109P + V188G; copies: 2 + 2 + 2
B18: AM_4109-4131 (bispecific antibody)
heavy 1: not shown
light: B1 light
heavy 2: B1 chain with Y183W
notes: AC_05293 backbone; also called double mutant I126A + Y180W; copies: 2 + 2 + 2
B19: AM_4120-4131 (bispecific antibody)
heavy 1: not shown
light: B1 light
heavy 2: B1 chain with Y183W
notes: AC_05293 backbone; also called double mutant A111V + Y180W; copies: 2 + 2 + 2
B20: 4110 (bispecific antibody)
heavy 1: not shown
heavy 2: B1 chain
light: B1 light
notes: also called single mutant I126G of AC_05293; copies: 2 + 2 + 2
B21: 4109 (bispecific antibody)
heavy 1: not shown
heavy 2: B1 chain
light: B1 light
notes: CD40 x EpCAM; also called single mutant I126A of AC_05293; copies: 2 + 2 + 2

Where a chain is given by its changes, count along the chain named. Names may count otherwise.

The target of one assay is T2, CD40 (UniProt P25942 21-193).
T2 construct: also called biotinylated CD40; CD40 antigen
T2 sequence (P25942 21-193 limits assumed): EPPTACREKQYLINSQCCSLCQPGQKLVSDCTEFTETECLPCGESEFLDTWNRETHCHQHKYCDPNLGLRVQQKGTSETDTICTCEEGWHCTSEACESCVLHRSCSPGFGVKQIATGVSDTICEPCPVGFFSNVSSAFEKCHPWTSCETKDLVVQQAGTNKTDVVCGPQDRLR
Description: Octet BLI; biotinylated CD40 on streptavidin sensor.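 Further: octet RED96 biolayer interferometry, 300 s association then 300 s dissociation in kinetic buffer, buffer-blank referenced, fitted with a 1:1 Langmuir binding model.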 Background: BLI is a label-free optical method that tracks binding on a fibre tip over time.
Description: (§1) Kinetic measurements were performed using the Octet RED96 platform (ForteBIo). […] Association was followed for 300 seconds followed by dissociation in 1x Kinetic buffer for 300 seconds. Sensor tips were regenerated using 10 mM glycine, pH 1.7. Data generated were referenced by subtracting a parallel buffer blank, the baseline was aligned with the γ-axis, inter-step correlation by alignment against dissociation was performed and the data were smoothed by a Savitzky-Golay filter in the data analysis software (v.9.0.0.14). The processed data were fitted using a 1:1 Langmuir binding model with X2 as a measurement of fitting accuracy.
(§2) Binding affinities of all the variants were determined using Octet (Pall ForteBio).
B1 came in with a Kd of 0.93 nM, an off-rate (koff) of 0.001 s⁻¹ and a kon of 1.1e+06 M⁻¹ s⁻¹.
For B2, in that order: 1.2 nM, 0.0006 s⁻¹ and 480000 M⁻¹ s⁻¹.
For B3, the Kd amounted to 0.86 nM, the koff was 0.001 s⁻¹ and the kon was 1.2e+06 M⁻¹ s⁻¹.
The molecule B4 yielded a Kd of 1.1 nM, a koff of 0.00075 s⁻¹ and a kon of 680000 M⁻¹ s⁻¹.
B5 came in with a Kd of 0.83 nM, a koff of 0.00092 s⁻¹ and a kon of 1.1e+06 M⁻¹ s⁻¹.
In the same order, the values of B6 are 1 nM, 0.0011 s⁻¹ and 1.1e+06 M⁻¹ s⁻¹.
For B7, in that order: 0.88 nM, 0.00075 s⁻¹ and 860000 M⁻¹ s⁻¹.
On to B8, for which the Kd was found to be 0.91 nM, the koff stood at 0.0011 s⁻¹ and the kon stood at 1.2e+06 M⁻¹ s⁻¹.
In turn, B9 returned a Kd of 1.2 nM, a koff of 0.00048 s⁻¹ and a kon of 400000 M⁻¹ s⁻¹.
In the same order, the values of B10 are 0.93 nM, 0.0007 s⁻¹ and 750000 M⁻¹ s⁻¹.
For B11, in that order: 1.1 nM, 0.001 s⁻¹ and 930000 M⁻¹ s⁻¹.
The molecule B12 registered a Kd of 1.2 nM, a koff of 0.00056 s⁻¹ and a kon of 450000 M⁻¹ s⁻¹.
For B13, in that order: 0.73 nM, 0.001 s⁻¹ and 1.4e+06 M⁻¹ s⁻¹.
In the same order, the values of B14 are 1 nM, 0.00066 s⁻¹ and 630000 M⁻¹ s⁻¹.
For B15, in that order: 1.5 nM, 0.00051 s⁻¹ and 350000 M⁻¹ s⁻¹.
In the case of B16, the Kd amounted to 0.9 nM, the koff was 0.0011 s⁻¹ and the kon worked out at 1.2e+06 M⁻¹ s⁻¹.
In the same order, the values of B17 are 0.97 nM, 0.00072 s⁻¹ and 740000 M⁻¹ s⁻¹.
For B18, in that order: 0.89 nM, 0.00072 s⁻¹ and 800000 M⁻¹ s⁻¹.
In turn, B19 gave a Kd of 1.1 nM, a koff of 0.00097 s⁻¹ and a kon of 920000 M⁻¹ s⁻¹.

For a further assay, the target named is T1, EpCAM. Description: Octet BLI; biotinylated EpCAM on streptavidin sensor.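 Further: octet RED96 kinetics: 300 s association, then 300 s dissociation in 1x Kinetic buffer, buffer-blank referenced, Savitzky-Golay smoothed, fitted to a 1:1 Langmuir binding model.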
Description: as §1, §2
B1 returned a Kd of 4.8 nM, a koff of 0.0012 s⁻¹ and a kon of 230000 M⁻¹ s⁻¹.
In the same order, the values of B2 are 4.3 nM, 0.00077 s⁻¹ and 180000 M⁻¹ s⁻¹.
B3 came in with a Kd of 5.6 nM, a koff of 0.0013 s⁻¹ and a kon of 230000 M⁻¹ s⁻¹.
Molecule B4 yielded a Kd of 4.9 nM, a koff of 0.00096 s⁻¹ and a kon of 190000 M⁻¹ s⁻¹.
In the same order, the values of B5 are 4.7 nM, 0.00098 s⁻¹ and 210000 M⁻¹ s⁻¹.
B6 displayed a Kd of 7 nM, a koff of 0.0013 s⁻¹ and a kon of 180000 M⁻¹ s⁻¹.
Consider B7, for which binding was put at a Kd of 5.3 nM, the koff was found to be 0.0011 s⁻¹ and the kon is 200000 M⁻¹ s⁻¹.
For B8, in that order: 5.8 nM, 0.0014 s⁻¹ and 250000 M⁻¹ s⁻¹.
Molecule B9 returned a Kd of 4.6 nM, a koff of 0.001 s⁻¹ and a kon of 220000 M⁻¹ s⁻¹.
In the same order, the values of B10 are 4.6 nM, 0.0012 s⁻¹ and 260000 M⁻¹ s⁻¹.
Consider B11, for which the Kd worked out at 6.9 nM, the koff was 0.0013 s⁻¹ and the kon turned out to be 190000 M⁻¹ s⁻¹.
In turn, B12 displayed a Kd of 4.7 nM, a koff of 0.00095 s⁻¹ and a kon of 200000 M⁻¹ s⁻¹.
Consider B13, for which the Kd was 4.6 nM, the koff was 0.00092 s⁻¹ and the kon was determined as 200000 M⁻¹ s⁻¹.
In the same order, the values of B14 are 4.5 nM, 0.0012 s⁻¹ and 260000 M⁻¹ s⁻¹.
For B15, in that order: 5.1 nM, 0.0009 s⁻¹ and 170000 M⁻¹ s⁻¹.
For B16, in that order: 5.7 nM, 0.0014 s⁻¹ and 240000 M⁻¹ s⁻¹.
Consider B17, for which the Kd was determined as 5.2 nM, the koff was found to be 0.0012 s⁻¹ and the kon came to 230000 M⁻¹ s⁻¹.
B18 gave a Kd of 4.4 nM, a koff of 0.00081 s⁻¹ and a kon of 180000 M⁻¹ s⁻¹.
In the same order, the values of B19 are 5.3 nM, 0.0015 s⁻¹ and 280000 M⁻¹ s⁻¹.

In a further assay the target is T2, CD40. Description: dual ELISA: CD40 coated, bsAb titrated, biotinylated EpCAM + streptavidin-HRP; signal needs both targets. (In general: In an ELISA, binding on a coated surface is turned into a signal by an enzyme label.)
Description: (§3) Dual ELISA Plates were coated with 0.5 μg/mL CD40 in PBS over night at 4° C. After washing in PBS/0.05% Tween 20 (PBST), the plates were blocked with PBS/2% BSA for at least 30 minutes at room temperature before being washed again. Samples serially diluted in PBS/0.5% BSA were then added and allowed to bind for at least 1 hour at room temperature. […] Dual complexed bsAb with CD40 and EpCAM were detected with HRP-labelled streptavidin. SuperSignal Pico Luminescent was used as substrate and luminescence signals were measured using Fluostar Optima.
As for B1, the “EC50 (read off the curve)” value was roughly 0.9 nM.
Still for that read-out and setting: with B2 the figure was roughly 0.9 nM; with B5, roughly 0.9 nM; with B13, roughly 0.9 nM.
On the same count and under the same terms, with B18 the figure was roughly 0.9 nM.

Another assay has as its target T2, CD40. Described as above. This is another data set of the same source.
Description: as §3
Regarding B1, the “EC50 (read off the curve)” value is roughly 0.1 µg/mL.
For the molecule B20, the “EC50 (read off the curve)” value is roughly 0.1 µg/mL.
On the same count and under the same terms, with B21 the figure was roughly 0.1 µg/mL.
